Source: PMC5013604

What was measured:
[1] = cycloheximide chase, western blot, MDA-MB-231; conditions: glycan lost; control: wild type
[2] = western blot with GSK3β and β-TrCP overexpression; conditions: glycan lost; control: wild type (co-expressed)
[3] = PD-L1 IP, anti-K48 ubiquitin blot, with MG132; conditions: glycan lost; control: MG132 without tunicamycin

Substance	degradation_or_half_life, half_life [1]	expression_or_secretion [2]	other: ubiquitination [3]
PD-L1 (programmed death ligand-1, B7-H1): 4NQ	decreases	decreases	–
PD-L1 (programmed death ligand-1, B7-H1): N35/3NQ	decreases	–	–
PD-L1 (programmed death ligand-1, B7-H1): N35Q	no change	–	–
PD-L1 (programmed death ligand-1, B7-H1): N192Q	decreases	–	–
PD-L1 (programmed death ligand-1, B7-H1): N200Q	decreases	–	–
PD-L1 (programmed death ligand-1, B7-H1): N219Q	decreases	–	–
PD-L1 (programmed death ligand-1, B7-H1): tunicamycin	–	–	increases
